Legend:
[1] = biological target: CCM1 D94R1 (non-glycosylated, spin-labelled) (human) (UniProt P13688); experiment: continuous-wave EPR
[2] = biological target: CCM1 E5R1 (non-glycosylated, spin-labelled) (human) (UniProt P13688); experiment: continuous-wave EPR
[3] = biological target: CCM1 Q103R1 (non-glycosylated, spin-labelled) (human) (UniProt P13688); experiment: continuous-wave EPR
[4] = biological target: cgCCM1 E5R1 (complex N-linked glycans, spin-labelled) (human) (UniProt P13688); experiment: continuous-wave EPR
[5] = biological target: cgCCM1 Q103R1 (complex N-linked glycans, spin-labelled) (human) (UniProt P13688); experiment: continuous-wave EPR
[6] = biological target: gCCM1 E5R1 (single GlcNAc modifications, spin-labelled) (human) (UniProt P13688); experiment: continuous-wave EPR
[7] = biological target: gCCM1 Q103R1 (single GlcNAc modifications, spin-labelled) (human) (UniProt P13688); experiment: continuous-wave EPR
SEC = biological target: the molecule itself; experiment: SEC

“CCM1 D94R1 (non-glycosylated, spin-labelled) (from UniProt P13688 69-175) (domain or fragment)” showed a stoichiometry N [1] of 2.

“CCM1 E5R1 (non-glycosylated, spin-labelled) (from UniProt P13688 69-175) (domain or fragment)” gave a stoichiometry N [2] of 2.

“CCM1 Q103R1 (non-glycosylated, spin-labelled) (from UniProt P13688 69-175) (domain or fragment)” was tested, and the stoichiometry N [3] was 2.

For “cgCCM1 E5R1 (complex N-linked glycans, spin-labelled) (from UniProt P13688 68-175) (domain or fragment)”, the stoichiometry N [4] was 2.

With “cgCCM1 Q103R1 (complex N-linked glycans, spin-labelled) (from UniProt P13688 68-175) (domain or fragment)” the stoichiometry N [5] was 2.

“gCCM1 E5R1 (single GlcNAc modifications, spin-labelled) (from UniProt P13688 68-175) (domain or fragment)” gave a stoichiometry N [6] of 2.

“gCCM1 Q103R1 (single GlcNAc modifications, spin-labelled) (from UniProt P13688 68-175) (domain or fragment)” was tested, and the stoichiometry N [7] was 2.

B1: non-glycosylated CEACAM1 N-terminal Ig-like domain (CCM1) (domain or fragment, human, UniProt P13688 35-141, looked up)
chain: QLTTESMPFNVAEGKEVLLLVHNLPQQLFGYSWYKGERVDGNRQIVGYAIGTQQATPGPANSGRETIYPNASLLIQNVTQNDTGFYTLQVIKSDLVNEEATGQFHVY
For B1, the “stoichiometry N” value (SEC) was 2.

From PMC9081242 (Structure (London, England : 1993), 2022)
